Results taken from patent US20230159655A1.

Columns and labels:
[1] = biological target: human NT5E-Biotin (NT5E, GenbankID: NP_002517.1, position: 1-552) (human) (UniProt P21589); test: ELISA on SA-captured NT5E-Biotin; antibody 0.333 ug/mL diluted 1:81; replicate 1
[2] = biological target: human NT5E-Biotin (NT5E, GenbankID: NP_002517.1, position: 1-552) (human) (UniProt P21589); test: ELISA on SA-captured NT5E-Biotin; antibody 0.333 ug/mL diluted 1:3; replicate 2
[3] = biological target: human NT5E-Biotin (NT5E, GenbankID: NP_002517.1, position: 1-552) (human) (UniProt P21589); test: ELISA on SA-captured NT5E-Biotin; antibody 0.333 ug/mL diluted 1:243; replicate 1
[4] = biological target: human NT5E-Biotin (NT5E, GenbankID: NP_002517.1, position: 1-552) (human) (UniProt P21589); test: ELISA on SA-captured NT5E-Biotin; antibody 0.333 ug/mL diluted 1:81; replicate 2
[5] = biological target: CD73 endogenously expressed on the cell surface (MDA-MB-231 cells; U87-MG cells) (UniProt P21589); test: flow cytometry on MDA-MB-231 cells; antibody 3.70 nM
[6] = biological target: human NT5E-Biotin (NT5E, GenbankID: NP_002517.1, position: 1-552) (human) (UniProt P21589); test: ELISA on SA-captured NT5E-Biotin; antibody 0.333 ug/mL diluted 1:243; replicate 2
[7] = biological target: CD73 endogenously expressed on the cell surface (MDA-MB-231 cells; U87-MG cells) (UniProt P21589); test: flow cytometry on MDA-MB-231 cells; antibody 0.14 nM
[8] = biological target: human NT5E-Biotin (NT5E, GenbankID: NP_002517.1, position: 1-552) (human) (UniProt P21589); test: ELISA on SA-captured NT5E-Biotin; antibody 0.333 ug/mL; replicate 2
[9] = biological target: human NT5E-Biotin (NT5E, GenbankID: NP_002517.1, position: 1-552) (human) (UniProt P21589); test: ELISA on SA-captured NT5E-Biotin; antibody 0.333 ug/mL diluted 1:729; replicate 1
[10] = biological target: CD73 endogenously expressed on the cell surface (MDA-MB-231 cells; U87-MG cells) (UniProt P21589); test: flow cytometry on MDA-MB-231 cells; antibody 0.05 nM
[11] = biological target: human NT5E-Biotin (NT5E, GenbankID: NP_002517.1, position: 1-552) (human) (UniProt P21589); test: ELISA on SA-captured NT5E-Biotin; antibody 0.333 ug/mL; replicate 1
[12] = biological target: CD73 endogenously expressed on the cell surface (MDA-MB-231 cells; U87-MG cells) (UniProt P21589); test: flow cytometry on MDA-MB-231 cells; antibody […]
[13] = biological target: CD73 endogenously expressed on the cell surface (MDA-MB-231 cells; U87-MG cells) (UniProt P21589); test: flow cytometry on MDA-MB-231 cells; antibody 100.00 nM
[14] = biological target: human NT5E-Biotin (NT5E, GenbankID: NP_002517.1, position: 1-552) (human) (UniProt P21589); test: ELISA on SA-captured NT5E-Biotin; antibody 0.333 ug/mL diluted 1:9; replicate 1
[15] = biological target: human NT5E-Biotin (NT5E, GenbankID: NP_002517.1, position: 1-552) (human) (UniProt P21589); test: ELISA on SA-captured NT5E-Biotin; antibody 0.333 ug/mL diluted 1:9; replicate 2
[16] = biological target: human NT5E-Biotin (NT5E, GenbankID: NP_002517.1, position: 1-552) (human) (UniProt P21589); test: ELISA on SA-captured NT5E-Biotin; antibody 0.333 ug/mL diluted 1:3; replicate 1
[17] = biological target: CD73 endogenously expressed on the cell surface (MDA-MB-231 cells; U87-MG cells) (UniProt P21589); test: flow cytometry on MDA-MB-231 cells; antibody 11.11 nM
[18] = biological target: human NT5E(1-552)-his (human) (UniProt P21589); test: Fortebio BLI, antibody on Protein A sensor, antigen 3.125-200 nM, 37 C, 1:1 fit
[19] = biological target: human NT5E-Biotin (NT5E, GenbankID: NP_002517.1, position: 1-552) (human) (UniProt P21589); test: ELISA on SA-captured NT5E-Biotin; antibody 0.333 ug/mL diluted 1:27; replicate 2
[20] = biological target: CD73 endogenously expressed on the cell surface (MDA-MB-231 cells; U87-MG cells) (UniProt P21589); test: flow cytometry on MDA-MB-231 cells; antibody 33.33 nM
[21] = biological target: human NT5E-Biotin (NT5E, GenbankID: NP_002517.1, position: 1-552) (human) (UniProt P21589); test: ELISA on SA-captured NT5E-Biotin; antibody 0.333 ug/mL diluted 1:729; replicate 2
[22] = biological target: human NT5E-Biotin (NT5E, GenbankID: NP_002517.1, position: 1-552) (human) (UniProt P21589); test: ELISA on SA-captured NT5E-Biotin; antibody 0.333 ug/mL diluted 1:27; replicate 1
[23] = biological target: human NT5E-Biotin (NT5E, GenbankID: NP_002517.1, position: 1-552) (human) (UniProt P21589); test: ELISA on SA-captured NT5E-Biotin; antibody 0 (blank); replicate 1
[24] = biological target: human NT5E-Biotin (NT5E, GenbankID: NP_002517.1, position: 1-552) (human) (UniProt P21589); test: ELISA on SA-captured NT5E-Biotin; antibody 0 (blank); replicate 2
[25] = biological target: CD73 endogenously expressed on the cell surface (MDA-MB-231 cells; U87-MG cells) (UniProt P21589); test: flow cytometry on MDA-MB-231 cells; antibody 0.41 nM

Sequence of human NT5E-Biotin (NT5E, GenbankID: NP_002517.1, position: 1-552) (human) (P21589 27-552 limits assumed, form in doubt): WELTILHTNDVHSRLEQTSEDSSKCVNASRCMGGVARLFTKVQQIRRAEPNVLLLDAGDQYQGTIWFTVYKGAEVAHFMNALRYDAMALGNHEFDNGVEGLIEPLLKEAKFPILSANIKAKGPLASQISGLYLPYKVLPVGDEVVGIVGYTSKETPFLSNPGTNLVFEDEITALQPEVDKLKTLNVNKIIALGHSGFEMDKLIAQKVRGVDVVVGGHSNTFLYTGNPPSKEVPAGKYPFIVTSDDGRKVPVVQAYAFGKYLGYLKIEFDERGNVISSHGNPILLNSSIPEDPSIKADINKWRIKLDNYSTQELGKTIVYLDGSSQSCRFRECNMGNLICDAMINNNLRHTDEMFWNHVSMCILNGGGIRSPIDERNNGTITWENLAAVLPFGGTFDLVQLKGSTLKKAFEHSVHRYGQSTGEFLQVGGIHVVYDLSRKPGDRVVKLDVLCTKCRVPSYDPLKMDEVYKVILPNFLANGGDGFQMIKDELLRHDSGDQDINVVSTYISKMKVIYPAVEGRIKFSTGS
Sequence of CD73 endogenously expressed on the cell surface (MDA-MB-231 cells; U87-MG cells) (P21589 27-549 limits assumed): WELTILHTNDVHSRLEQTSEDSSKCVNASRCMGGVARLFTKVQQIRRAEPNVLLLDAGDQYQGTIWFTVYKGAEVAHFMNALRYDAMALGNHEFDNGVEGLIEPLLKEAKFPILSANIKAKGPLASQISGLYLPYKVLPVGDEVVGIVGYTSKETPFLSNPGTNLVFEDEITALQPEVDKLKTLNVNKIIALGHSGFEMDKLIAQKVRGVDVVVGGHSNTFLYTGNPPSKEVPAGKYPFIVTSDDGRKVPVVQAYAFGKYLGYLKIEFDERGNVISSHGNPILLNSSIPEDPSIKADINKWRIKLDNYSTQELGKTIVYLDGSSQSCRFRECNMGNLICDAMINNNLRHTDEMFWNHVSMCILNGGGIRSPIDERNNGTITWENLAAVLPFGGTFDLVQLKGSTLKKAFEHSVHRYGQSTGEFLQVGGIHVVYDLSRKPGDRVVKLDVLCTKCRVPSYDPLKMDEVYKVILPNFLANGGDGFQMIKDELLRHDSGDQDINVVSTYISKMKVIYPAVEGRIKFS
Sequence of human NT5E(1-552)-his (human) (P21589 27-552 limits assumed, form in doubt): as the sequence (P21589 27-552 limits assumed, form in doubt) above

OD 450 nm [1]: 1.06 OD450 | OD 450 nm [2]: 2.6 OD450 | OD 450 nm [3]: 0.536 OD450 | OD 450 nm [4]: 1.03 OD450 | fluorescence intensity (FACS) [5]: 454 | OD 450 nm [6]: 0.528 OD450 | fluorescence intensity (FACS) [7]: 43.2 | OD 450 nm [8]: 2.53 OD450 | OD 450 nm [9]: 0.272 OD450 | fluorescence intensity (FACS) [10]: 28.4 | OD 450 nm [11]: 2.55 OD450 | fluorescence intensity (FACS) [12]: 267 | fluorescence intensity (FACS) [13]: 581 | OD 450 nm [14]: 2.27 OD450 | OD 450 nm [15]: 2.28 OD450 | OD 450 nm [16]: 2.57 OD450 | fluorescence intensity (FACS) [17]: 519 | S E (kdis) [18]: 5.02e-06 s⁻¹ | OD 450 nm [19]: 1.74 OD450 | fluorescence intensity (FACS) [20]: 546 | OD 450 nm [21]: 0.275 OD450 | OD 450 nm [22]: 1.77 OD450 | OD 450 nm [23]: 0.121 OD450 | OD 450 nm [24]: 0.116 OD450 | fluorescence intensity (FACS) [25]: 91
Substance: positive control antibody MEDI9447 (oleclumab)
